Here are results for 47 sequences from the NTF2 design screens of Basanta et al. (2020).

The data set in a line: protease stability score; higher = more stable; yeast display proteolysis, trypsin and chymotrypsin.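 Also: relative to predicted unfolded state with 0 unfolded-like and 1 meaning tenfold more protease.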
“SEEETFTEIAVKLLMHLWNTGDENELMRNFDPNARMDINGQEYHGREDIVRRLDEFKKRLGVERVHFELNDIRPVNGRADVDGIVIFNGQKLRVRHIVWKINGRWYLEEFEVR” had a protease stability score of 1.44.
Turning to “TDLKEYVERMLELLRKAIETGDETTLTKLVDPHVRLEVNGREFHGWKFWHMIVREIRMRDLELHHVEIQGDKMEVDGTLHLEINGKDDYRKVRLIAEKFDGRWVFTSVHFE”, the protease stability score stood at 1.72.
“DDMHEVAKQLMEELVRNWITGNEDNVRHLLDPDVRIIIGDFIFHGRESLELLLHFYNKHIRWTDYKVHDFRIQGDYLHMDTRLIGIIDGRHVILETQMVAVKINGRWRVKSLEVR” gave a protease stability score of 2.11.
The result for “NEDEEYVRLAHEILVETLRTGDEHITKRLADPHVRIDVGDKELHGWEDWLELLTHEARHLRTEIRVRNFDSQGDFIRVEVIIIIVVNGKRIEREVHYFSLKVDGRWLLTHVEIK” reads 0.242; that for “DDHKKRVDHLLRELLHHWRTGDFEHIYKLADPHVRFHIQIGEFHHEAVGWDEVVRLIQTHLDQLGVDHLRIRRVKSQGDKLYIETESYIGDFRIEFHIIWIVVNGRLKEQRMHIHEG”, 1.45; that for “SREEEDAKLALDLLIEALKTGDEHEIKELLDPTTRMEVGDKELVGRENISKHVSDMVHRIDHIEVRLHDMTIINGVVHLDTRLILHFNGRTHTQETRVIVWKFNGRWIITHIHVK”, 1.28.
Under “DEEEKMHTKAVELTETILKTGDERIIKEMADPNTRVIFDGVDLHGMEHWTEFWRRLGFKHIEIRTTEVVDGRVIIIQHVRYNGKKHESHVYADKIDGRWLYTHVEIR” stands 0.618; under “DEDERVLEEALRLWLHWVATGNETKLMEMLDPNVRLDIGDKHTHGREKFHEFMKHHKELWGVTRFHLELKRYSIQGDKVEIDIEVDINGRHFDVHIRILKIDGKWRLEQVRIN”, 1.51.
The result for “DEEKERMEELLRLWVEAVRTGDEETLHKLMDPDVRIEYGDKDHHGREEMHRMMREWYERVDVINTYHVRRIKIVDGKARVDAELDGTIDGKRVIFREILISSKYNGQWTVTSISIK” reads 1.43.
“HEYEEEVTKAIEVLLHLLMTGDFDQMLHLADPNYRVDINGQEYIGREWFEVIRDKFKNVKIKDMHIDHVIFIGDKVIIHSREHRQQGDKERTFTVVLYSRKINGQWVHTSVKFS” returned a protease stability score of 1.59.
The result for “EEWRDHVHHLLELMLHLWRTGDEEIFHRLLDPDTLVRVNGVEFHGRDAMHHVLHRLIEELGINHYRESDFDIQGNKAFHHGELRVNGKTVLEEQRYVIFNGKIKEIRITLH” reads 0.271; that for “DEDKHLIETFLERLERILKTGDEEDERRLADPHAKLVQGDKILHGREELIRWLRELGAKHVRLHISHLDVQGDKVETDLRLIIIQGDKEYEKDMKVHVLKVDGRWLLKSIIVE”, 2.08.
Under “SEVEELSRRVAEFTWEVLRTGDERLLREMIDPNVRMEIDGQEYHGMELLVEHWIKLHQKFPNLKLHLREVRVIDGVAHVRLEVRFNGVRLEIEVVITKINGRWSNTFVHETDR” stands 1.13; under “DKRIEWYRHVMEVLFNILLTGNFEILEELLDPHVRIDINGKEYHGREQMIEAWETHLHELRIHDMRIKTIDHQGDKHILTTRVDIDIDGQNVEDRTHIELHIIDGRLKSIILRVS”, 1.06.
“SEDKEMADWAIEIWVKSIRTGDEHTQLHLVDPHYREDVGDKEIHGRDELRRHMHEARVDEFRHKIDRMRTQGNKVHLDGIFQMKIRIDGKVDHIEFHSRLVVEKVDGRWLVKSLHIN” displayed a protease stability score of 1.21.
The result for “DESEELSRIASHLFLRMMHTGNEEEISKLADPNTRLDVNGKHFHGMELIIHFLHELRRKLGVKYIRLKSVHITIVNGKVDLELEGDLLQGDFEIPSHIRNIALKVDGKWFIHRQEFRFE” reads 1.32; that for “SEEEHMLEAFFEDVLQLVMTGDEHRLKHLFDPNVRVETEHEHFHGRELFLQRMLEIRIHDFHIHDFEVQGDKAHVDGRVEGTIDGRTNHWTFTLILEKIDGRWLANKVTWH”, 1.55; that for “DEDHELSKLAQEWFYKTMVTGDEETAERLADPNMRIDINGKSLHGRKWQRHIIRDLGVDHVEFHDVRTINGQLHISTTINVDGRNQHTHIIVLKIDGRWSLRSSEFK”, 0.614.
The result for “DDYDHITELALREIERVLHTGDEEDLRRMIDPHVRIDIDGKDIHGWENLFKHIEEERRRFPNLQIDWELKDTRKQGDKIILHGQIHIQQGDKEIERDFTIKAVKINGQWIVKTFHIR” reads 1.63; that for “DESQRDAHHASELVELVEKTGDWKMFEKLLDPHVRLQVGDKEFHGRHEAMRWIRETLERLGIDHREVRIEHIEFIGDKMIIHGEIILRFNGVTITHEEEFIVKKINGKWRMHEIRVR”, 1.29; that for “TEHEEMIREALEFLIRLLETGDFERLHHLADPNVRLEQGDKEFIGREEWLRLFTEEIRQYKGITIHIHEVEVVDGRVYINGTVHQGDKIRRVIWVIIKIDGKWRIHSVHIR”, 2.19.
Under “DEDEQHSELLFRLLYHARKTGDWRKLQELADPHTRFQIGEWDLIGWKMYLEYVRNFRNVHLEFHIKDFRLYGEKTHSNVETIIRIGDKTLNIETELRVDVVNGRIKFIEVHER” stands 0.994; under “NEEERENIRIFMMWIEDLVTGNWDRIEHLADPHYRQDVNGRHIHGRDTFAQMVREEMHRIDHHEIKLRHVSVQGNKLRAHVEINLIIGEKRIEKEVIVDLNVINGVLHEVKIVVR”, 1.04; under “SEMDENIHEALKEEMHAWVTGDFDKIEHLLDPNTRVEQGEFIYHGRFFVEFVRRRVDHVFWHHVEIRHIENVDGRMIIDGIVDFEETAENHRHRHTIRTIIYLEKIDGKWYIRSLEVK”, 0.874.
On to “SEDEEHDHKLARWILELLHTGDEETFLDLMDPNTRVIIHVGDKRIHNHGREVVKRIQEQLEEDWGVSRVEIHIRRMTIIDGRVRIDGLLEYDGRRHEIHMIFVIINGKIHSEEQHIH”, for which the protease stability score turned out to be 1.46.
“DENHEIVKRALEIIVVALLTGDFDTLTELFDPEVRIQVGDKHLHGREDFWKWLKELITRADHNDFKVESIEVQGDKMVIDGEMIIHYNGREHRYKTEVIILKIDGRWVVKRIHYE” showed a protease stability score of 1.65.
The result for “DEIVEMVREIAEEILHAELTGDEDKFKKLIDPNVRLQINGKDIHGMEDFRKWNEEWRIHHIEVKHLDIFEGHSRMDGKLDGTINGQRRNLKTILEIKVVDGRVKEITIHVL” reads 1.12; that for “SEDEEEIKTTFENLDRSIRTGDEDHVRKLADPTMRLDWNGQEFHGREWFSKHLSEFVKRADHFEIRLHDLDMVNGKLHIDGQLILIINGRTQILKLHLVFIKVDGRWILDNVQVN”, 1.04; that for “NHEEEHAKTLFEEWLRVLLTGDWKMFSHLADPHTRIHIGNKDIHGRDLFVELVIRELEEIRVILIVEELSAQGDKSRMRTRLIIRQGEFEHRTELRLEIVFVDGKFTSIHLRHK”, 0.599.
The result for “DEEEQRIEEMLKKWLEAMETGDEDLEKQLADPNVRFHIGDKEHVGREELSQVKKRLGIKVMILHDERVDRQGDWIVMHLDIILEFDGRRFRVRFNLFVEKIDGRWLVKKVEIHLR” reads 0.936; that for “DEDEEALDRFLEEWRRYFETGNWEMISNLVDPHARLEQGDKRFHGREEVAKYIHHLVRHMRINDFDIEHRDVQGDKIRIHLRLNGEIDGRRTEFEIHMIYIKVNGRWVVKSMVVN”, 0.882.
Under “SEEEERLRRFFEEFIKWHVTGDEEHLERLMDPNAKFIVNGVESHGWENTSRHLKELRIHELNIRRVEIVNGRIHISGLAKGEFNGRHRETTVHIHIVVIDGRVKEMSIEVR” stands 2.48.
In turn, “SEERERVRKIHEWLVRFLETGDEESFNHLADPNMRLIVWYNGVNIVFIGRESWREFLRLFREEMRLHRIRVHHVDVQGEKVTSDTRNDGEVNGQRTEFETHVEVVLINGRLKLVLLEFK” came in with a protease stability score of 2.33.
Under “SEEEEELRIANELVKRSLDTGDEDLERELADPNTRVNYGDKILHGRHEVVRWLRRIDHIHVHWRDVRIYNGRIEMDGRLVLRVGDKSFSLETRIYMEKVDGQWVIKDHEIR” stands 0.314; under “DEEEKDAKEIFRLSHDWWRTGDEMLIHMNFDPNVRLRIGDKSSHGREDVARIIVKVYKDFGVKHFEIREVDHQGEKIKLDGVSNFNGKEVKIEISSNKVNGVWVIKEVNIQ”, 1.11; under “DELEEETRRFAKHWVESLLTGDEDKLSRLMDPNVILDVNGREHIGWERAVHHLSRLLKELGAKHINVRLHELRIYDGVAEIDSRLQIIVGDKTEEHNVKLVITKVDGRWVVKSITIH”, 1.95.
In turn, “NEDEHRARFIFRILTKAILTGDEDFLHRFADPNVRIHVNGVNLIGMEEWLRHLKELRIHFITSHVREIDKIDGVMIVHGEFVIDGEVNGKRDTWHTEIHLVITKVNGRWILHELHTR” had a protease stability score of 2.58.
“DELEETAERMMKQFTDMWRTGDEEYFWRLADPHVRVNIDGVTRIGREESSEMFERWIRHIRLKSVHIEEVEIQGEKSHSDGRLNEIVDGKEEIVHVTINLIVINGRIHSVEFERE” showed a protease stability score of 0.765.
Under “DEEDKALEESMRTYHESIHTGDEESFRLLFDPDVRMRINGVDLHGREAMEWMSERIDHLELRRIRFRSIETQGNKIRIDGHEDIEILVDGKRMRVIDRVIIQAVKVNGRWTIKSIKFG” stands 1.15; under “SQEERELHRALKELFDRFITGDWDKLQKLLDPEVRLNINGQEIHGREEVWKRKIEEFEKFGIDHIKFHLEHERRQGDKIELDGRLEIRVGDKRLEHEVRIVFLKIDGKWILRSEEIN”, 1.47; under “DDSQDIAKTMVDIITKNSLTGDEENFEHLVDPDARLTVNGVELHGREDVVRWMKHARIHDTRVRHIRVQGNKIEVDSESRVDINGKENEMKFKLIFIKVNGQWHIRDIEIR”, 2.13.
Under “DEIEHHDRIIHHLTLHAFFTGDESITEHLADPDVRLDIVQGDKFNHVIGREMVVQWLEEWWRRVKNARFRVHRVEVINGQVNLRVEVDINGKRVDFTLIIIVIDGKIRSQEVIFH” stands 1.67; under “REDEEWLERLLRIIEKAMRTGDEQLTKELFDPNVRLEVGDKIIIGWEELTKIMHEMRVRDSRIHRVRTVGDKVEADTTVNGEIDGREFETEVRIEMLKVDGQWVVDKVHFK”, 1.89; under “SDIEDHAIEFFSNELWSWHTGDEHDLKKLLDPNARIYINGVEVHGRERVLEDLIENMRRRGVRVNEVRVRDFHIVGNFLHFDVRIKYRVGDKILTYEVRILVLKIDGVWFFSELRIE”, 1.55.
Under “SEEEKKLNHWLELWLRSVVTGDEEHLERLADPHVRNHVGDFESHGREEVLKLMEMLKRTLGAKHIRIEIHHVDVQGDKVRMDTRIIIDAENHHLTLKSRMHTRKIDGRWYLHSLEID” stands 1.06; under “DEDHELAEDAIRWMSKIMLTGNEEHLHEMFDPDARIRFEGRSSHGWEEMIHFIRHIRIYIKESRIRDVRIQGDKIDVIGEVKIVIRIGDKIHEDTRDVYILVVKVDGRWTVRSFELV”, 0.712.
On to “TEEENMNEENLDLAVHLMHTGDEEHLFDRLDPHARLEYGDKKYHGREIVEEVLLTLIRELGVDHIRVRRVKFVGDKLHIDSEFTVGDKVFRLHLVARKINGRWWLHSMRVQ”, for which the protease stability score is 1.34.
